B1: ESRRB: Ac45SGlcNAc (OGT inhibitor) (protein)
parent chain: MSSEDRHLGSSCGSFIKTEPSSPSSGIDALSHHSPSGSSDASGGFGIALSTHANGLDSPPMFAGAGLGGNPCRKSYEDCTSGIMEDSAIKCEYMLNAIPKRLCLVCGDIASGYHYGVASCEACKAFFKRTIQGNIEYNCPATNECEITKRRRKSCQACRFMKCLKVGMLKEGVRLDRVRGGRQKYKRRLDSENSPYLNLPISPPAKKPLTKIVSNLLGVEQDKLYAMPPNDIPEGDIKALTTLCELADRELVFLINWAKHIPGFPSLTLGDQMSLLQSAWMEILILGIVYRSLPYDDKLAYAEDYIMDEEHSRLVGLLDLYRAILQLVRRYKKLKVEKEEFMILKALALANSDSMYIENLEAVQKLQDLLHEALQDYELSQRHEEPRRAGKLLLTLPLLRQTAAKAVQHFYSVKLQGKVPMHKLFLEMLEAKV
B2: ESRRB: S25A (protein)
parent chain: B1 parent chain

Experiments:
[1] = CHX chase, FLAG-ESRRB immunoblot, mESCs; conditions: glycan lost; control: DMSO
[2] = ESRRB-responsive element luciferase reporter, HEK293T; conditions: glycan lost
[3] = GFP immunoprecipitation, ubiquitin blot, HEK293T; conditions: glycan lost; control: wild type
[4] = CHX chase up to 12 h, immunoblot, mESCs; conditions: glycan lost; control: FLAG-ESRRB wild type
[5] = CHX 12 h, immunoblot, HEK293T; conditions: glycan lost; control: EGFP-ESRRB wild type

Row | Protein | degradation_or_half_life [1] | other: transcriptional activity ([2]; control: DMSO) | other: transcriptional activity ([2]; control: FLAG-ESRRB wild type) | other: ubiquitination [3] | degradation_or_half_life [4] | degradation_or_half_life [5]
1 | B1 | decreases | decreases |  |  |  | 
2 | B2 |  |  | decreases | increases | decreases | decreases
